The source of these data is patent publication US20240226230A1 (MAYO FOUNDATION FOR MEDICAL EDUCATION AND RESEARCH, published 2024).

One test concerns the target T1, Nup62-mCherry (UniProt P37198 1-522).
T1 construct: mCherry replaced GFP in pNup62-EGFP3; also called mCherry-tagged Nup62; not shown: mCherry tag
T1 sequence: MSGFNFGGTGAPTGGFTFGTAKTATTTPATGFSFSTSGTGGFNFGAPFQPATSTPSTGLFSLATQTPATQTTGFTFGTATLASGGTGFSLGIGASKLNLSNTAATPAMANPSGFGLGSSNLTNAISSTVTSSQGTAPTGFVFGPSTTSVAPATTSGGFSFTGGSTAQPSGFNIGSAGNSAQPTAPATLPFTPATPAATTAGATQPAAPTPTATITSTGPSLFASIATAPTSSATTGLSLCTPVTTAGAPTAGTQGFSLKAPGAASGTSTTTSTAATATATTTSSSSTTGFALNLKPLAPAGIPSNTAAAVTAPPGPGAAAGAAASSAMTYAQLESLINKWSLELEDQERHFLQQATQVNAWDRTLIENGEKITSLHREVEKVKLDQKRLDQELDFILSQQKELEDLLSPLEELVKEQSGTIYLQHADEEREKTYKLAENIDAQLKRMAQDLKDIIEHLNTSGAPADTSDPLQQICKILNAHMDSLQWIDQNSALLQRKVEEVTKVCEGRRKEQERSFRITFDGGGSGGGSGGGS
The test is described as follows: co-localisation by fluorescence microscopy of co-transfected cells.

The target in test [1] is T2, endogenous Nup62 (human, UniProt P37198 2-522).
T2 construct: Detected with anti-Nup62
T2 sequence (looked up): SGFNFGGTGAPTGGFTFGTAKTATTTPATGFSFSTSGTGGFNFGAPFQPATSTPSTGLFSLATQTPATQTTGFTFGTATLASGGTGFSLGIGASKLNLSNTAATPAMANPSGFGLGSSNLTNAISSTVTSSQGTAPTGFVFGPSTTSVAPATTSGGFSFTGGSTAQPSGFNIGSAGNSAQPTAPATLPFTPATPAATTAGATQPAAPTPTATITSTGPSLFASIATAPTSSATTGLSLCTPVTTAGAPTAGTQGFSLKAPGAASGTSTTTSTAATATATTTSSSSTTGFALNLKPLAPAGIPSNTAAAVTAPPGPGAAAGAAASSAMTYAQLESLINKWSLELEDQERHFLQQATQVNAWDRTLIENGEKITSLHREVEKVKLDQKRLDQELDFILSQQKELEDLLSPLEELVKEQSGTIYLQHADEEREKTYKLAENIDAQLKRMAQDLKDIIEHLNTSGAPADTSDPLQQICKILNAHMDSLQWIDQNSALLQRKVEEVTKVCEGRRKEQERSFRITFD
The test is described as follows: co-localisation by immunofluorescence in HEK293T cells (not a direct binding assay). The text has this: (§1) FIGS. 31A-31C: The PrLD of TDP-43 interacts with FG-Nups and KPNB1. FIG. 31A) Immunofluorescence (IF) of HEK293T cells expressing GFP or GFP-TDP-PrLD and stained for endogenous Nup98 and Nup62. TDP-PrLD forms small cytoplasmic foci positive for Nup62. FIG. 31B) IF of HEK293T cells expressing GFP or GFP-TDP-PrLD and stained for endogenous KPNB1. KPNB1 colocalizes with TDP-PrLD foci in the cytoplasm. Hoechst staining was used to outline nuclei. Scale bar: 5 μm. FIG. 31C) Lysates from HEK293T cells expressing GFP or GFP-TDP-PrLD were subjected to immunoprecipitation with GFP-Trap magnetic beads. Whole cell lysates (input) and immunoprecipitates (IP) were subjected to western blot analysis using indicated antibodies. The PrLD of TDP-43 interacts with Nup62, Nup98 and KPNB1, but not with Ran.

A further test deals with T3, endogenous KPNB1 (human, UniProt Q14974 1-876).
T3 construct: Endogenous protein detected with anti-KPNB1
The test is described as above.
Text: as §1

The target in another test is endogenous Ran (human, UniProt P62826 2-216). Kind of test: GFP-Trap IP from HEK293T lysates, western blot.
Text: (§2) FIGS. 29A-29C: Untagged KPNB1 interacts with both the RRM2 and PrLD of TDP-CTF. FIG. 29A) (Left) Lysates from HEK293T cells expressing GFP alone, or untagged KPNB1 with GFP, GFP-TDP-CTF or GFP-TDP43^WT were subjected to immunoprecipitation with GFP-Trap magnetic beads. Whole cell lysates (input) and immunoprecipitates (IP) were subjected to western blot analysis using indicated antibodies. (Right) Quantification of relative KPNB1 levels in IP normalized by KPNB1 levels in input. Statistical analysis was performed using one-way ANOVA and Bonferroni's post hoc test (**p<0.01, ***p<0.001, n=3). […] FIG. 29C) (Left) Lysates from HEK293T cells expressing GFP alone, or untagged KPNB1 with GFP, GFP-TDP-CTF, GFP-TDP-CTF^non-PrLD or GFP-TDP-PrLD were subjected to immunoprecipitation with GFP-Trap magnetic beads. Whole cell lysates (input) and immunoprecipitates (IP) were subjected to western blot analysis using indicated antibodies. (Right) Quantification of relative KPNB1 levels in IP normalized by KPNB1 levels in input. Statistical analysis was performed using one-way ANOVA and Bonferroni's post hoc test (***p<0.001, n=3).
as §1
(§3) HEK293T cells were seeded in 6-well plates and transfected for 48 hours. Cells were then lysed in IP Lysis buffer (Fisher) supplemented with a protease inhibitor cocktail (Roche), and were centrifuged at 15000 rpm for 20 minutes at 4° C. A small aliquot of the recovered supernatant was set aside (input).
(Immunoblotting shows a protein as a band on a membrane.)

The target in a further test is T4, endogenous Nup98 (human, UniProt P52948 1-880).
T4 sequence (looked up): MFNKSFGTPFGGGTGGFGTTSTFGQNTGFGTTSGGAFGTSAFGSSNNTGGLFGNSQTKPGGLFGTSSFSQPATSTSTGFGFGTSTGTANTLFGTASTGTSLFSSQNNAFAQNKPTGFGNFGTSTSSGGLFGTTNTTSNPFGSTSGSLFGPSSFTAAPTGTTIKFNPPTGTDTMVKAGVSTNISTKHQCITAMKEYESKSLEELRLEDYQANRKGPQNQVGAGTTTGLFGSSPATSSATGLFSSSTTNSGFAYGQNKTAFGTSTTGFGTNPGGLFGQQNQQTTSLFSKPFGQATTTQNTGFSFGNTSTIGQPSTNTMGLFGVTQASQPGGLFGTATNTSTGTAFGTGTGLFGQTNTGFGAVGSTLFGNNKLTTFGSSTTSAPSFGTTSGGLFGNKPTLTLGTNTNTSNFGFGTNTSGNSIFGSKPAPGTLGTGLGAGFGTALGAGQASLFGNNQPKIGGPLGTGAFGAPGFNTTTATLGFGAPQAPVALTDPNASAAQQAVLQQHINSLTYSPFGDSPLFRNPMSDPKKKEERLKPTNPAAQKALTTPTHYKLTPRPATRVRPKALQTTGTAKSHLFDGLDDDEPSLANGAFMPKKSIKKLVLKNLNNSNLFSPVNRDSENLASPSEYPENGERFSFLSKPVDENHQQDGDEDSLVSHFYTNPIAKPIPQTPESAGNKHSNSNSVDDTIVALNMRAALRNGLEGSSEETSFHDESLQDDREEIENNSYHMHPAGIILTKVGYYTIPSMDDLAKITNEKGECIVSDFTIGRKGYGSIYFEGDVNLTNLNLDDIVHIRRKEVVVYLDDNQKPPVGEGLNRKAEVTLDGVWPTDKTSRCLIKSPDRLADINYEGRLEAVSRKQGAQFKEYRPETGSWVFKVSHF
Kind of test: GFP-Trap IP from HEK293T lysates, western blot.
Text: as §2, §1, §3

The next test deals with T5, Untagged KPNB1 (Homo sapiens (Human), UniProt Q14974 1-876).
T5 construct: KPNB1 amplified by PCR and cloned into pEGFP-C1 lacking the GFP tag; also called Wildtype KPNB1
Kind of test: GFP-Trap IP from HEK293T lysates, western blot.
Text: as §2, §1, §3

In another test the target is T6, GFP-Nup98 (UniProt P52948 1-880).
T6 construct: Bought plasmid; not shown: GFP tag
T6 sequence (looked up): T4 sequence (looked up)
Kind of test: co-localisation by immunofluorescence in HEK293T cells (FIG. 35). The source says: FIG. 35: Nup98 strongly associates with TDP-CTF^WT, but not TDP-CTF^VLIM-F and sTDP. […] Arrowheads point to co-aggregation. Hoechst staining was used to outline nuclei. Scale bar: 5 μm.

The target in test [2] is T2, endogenous Nup62. Kind of test: co-IP, western blot. The source says: RanGTP and importin-α interact with H1-8 and H8-19, respectively. FG-Nups bind to two regions of KPNB1, H5-7 and H14-16. FIG. 21B) Lysates from HEK293T cells expressing GFP, GFP-KPNB1 full-length (FL), N-terminal fragments of KPNB1 (H1-9 . . . H1) or the C-terminal fragment of KPNB1 (H10-19) were subjected to immunoprecipitation with GFP-Trap magnetic beads. Whole cell lysates (input) and immunoprecipitates (IP) were subjected to western blot analysis using indicated antibodies. KPNB1 H1-8, the smallest fully active KPNB1 fragment in reducing TDP-43 aggregation, strongly interacts with FG-Nups and Ran, and weakly with importin-al in comparison with full-length KPNB1. FIG. 21C) (Top) Schematic domain structure of KPNB1 H1-8^mNIS harboring four missense mutations (1178A, F217A, Y255A, I263R) in the nucleoporin-interacting site (NIS). (Bottom) Lysates from HEK293T cells expressing GFP, GFP-KPNB1 H1-8^WT or H1-8^mNIS were subjected to immunoprecipitation with GFP-Trap magnetic beads. Whole cell lysates (input) and immunoprecipitates (IP) were subjected to western blot analysis using indicated antibodies. […] Hoechst staining was used to outline nuclei. Scale bar: 5 μm. […] FIG. 21G) Quantification of the percentage of cells with cytoplasmic GR aggregates positive for endogenous TDP-43.

T5 sequence (Q14974 whole entry): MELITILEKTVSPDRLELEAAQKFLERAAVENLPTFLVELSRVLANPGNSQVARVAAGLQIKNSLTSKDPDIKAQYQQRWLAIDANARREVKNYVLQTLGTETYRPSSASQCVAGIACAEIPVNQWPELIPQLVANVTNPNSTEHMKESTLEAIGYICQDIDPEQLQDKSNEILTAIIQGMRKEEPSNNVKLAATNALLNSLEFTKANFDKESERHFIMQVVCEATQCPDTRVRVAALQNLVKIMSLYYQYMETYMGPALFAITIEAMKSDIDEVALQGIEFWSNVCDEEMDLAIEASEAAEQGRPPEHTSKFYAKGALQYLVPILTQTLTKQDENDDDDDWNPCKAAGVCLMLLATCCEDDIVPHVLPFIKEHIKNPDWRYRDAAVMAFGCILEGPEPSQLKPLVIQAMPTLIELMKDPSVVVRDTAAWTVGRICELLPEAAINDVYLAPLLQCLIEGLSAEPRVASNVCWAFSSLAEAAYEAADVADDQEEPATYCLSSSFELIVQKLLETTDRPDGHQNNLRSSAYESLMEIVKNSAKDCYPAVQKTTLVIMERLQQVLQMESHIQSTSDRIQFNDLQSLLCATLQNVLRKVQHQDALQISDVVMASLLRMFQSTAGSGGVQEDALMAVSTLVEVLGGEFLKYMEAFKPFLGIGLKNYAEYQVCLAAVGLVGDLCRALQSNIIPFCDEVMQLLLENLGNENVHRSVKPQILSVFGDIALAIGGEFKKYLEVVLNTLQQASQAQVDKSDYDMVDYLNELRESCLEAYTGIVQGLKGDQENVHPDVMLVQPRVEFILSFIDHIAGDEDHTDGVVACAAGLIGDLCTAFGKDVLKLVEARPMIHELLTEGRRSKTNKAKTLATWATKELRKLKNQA
T3 sequence (Q14974 whole entry): as above

B1: GFP-TDP-43^mNLS 1-265 (other, human)
chain: GGGSGGGSGGGSMSEYIRVTEDENDEPIEIPSEDDGTVLLSTVTAQFPGACGLRYRNPVSQCMRGVRLVEGILHAPDAGWGNLVYVVNYPKDNAAAMDETDASSAVAVAAAVQKTSDLIVLGLPWKTTEQDLKEYFSTFGEVLMVQVKKDLKTGHSKGFGFVRFTEYETQVKVMSQRHMIDGRWCDCKLPNSKQSQDEPLRSRKVFVGRCTEDMTEDELREFFSQYGDVMDVFIPKPFRAFAFVTFADDQIAQSLCGEDLIIKGISVHISNAEPKHN
notes: not shown: GFP/EGFP tag (pEGFP-C1, Clontech)
Turning to B1, the binding result with Nup62-mCherry is on record as “no binding”.

B2: GFP-TDP-PrLD (other, human)
chain: GGGSGGGSGGGSRFGGNPGGFGNQGGFGNSRGGGAGLGNNQGSNMGGGMNFGAFSINPAMMAAAQAALQSSWGMMGMLASQQNQSGPSGNNQNQGNMQREPNQAFGSGNNSYSGSNSGAAIGWGSASNAGSGSGFNGGFGSSMDSKSSGWGM
notes: also called GFP-TDP-43 PrLD; TDP-PrLD (aa275-414); not shown: GFP/EGFP tag (pEGFP-C1, Clontech)
With B2, the binding result was “binds” with endogenous Nup62 [1]; “binds” in the test with endogenous KPNB1; “no binding” with endogenous Ran; “binds” in the test with endogenous Nup98; “binds” with Untagged KPNB1.

B3: mCherry-TDP-CTF^VLIM-F (other)
chain: GGGSGGGSGGGSREFFSQYGDVMDVFIPKPFRAFAFVTFADDQIAQSLCGEDLIIKGISVHISNAEPKHNSNRQFERSGRFGGNPGGFGNQGGFGNSRGGGAGFGNNQGSNFGGGFNFGAFSFNPAMMAAAQAALQSSWGMMGMLASQQNQSGPSGNNQNQGNFQREPNQAFGSGNNSYSGSNSGAAFGWGSASNAGSGSGFNGGFGSSFDSKSSGWF
notes: also called mCherry-tagged TDP-CTF^VLIM-F; not shown: mCherry tag (mCherry-C1, Clontech)
As to B3, in the test with GFP-Nup98, the binding result is reported as “no binding”.

B4: GFP-KPNB1 H1-8^mNIS (receptor)
chain: GGGSGGGSGGGSMELITILEKTVSPDRLELEAAQKFLERAAVENLPTFLVELSRVLANPGNSQVARVAAGLQIKNSLTSKDPDIKAQYQQRWLAIDANARREVKNYVLQTLGTETYRPSSASQCVAGIACAEIPVNQWPELIPQLVANVTNPNSTEHMKESTLEAIGYICQDIDPEQLQDKSNEILTAIAQGMRKEEPSNNVKLAATNALLNSLEFTKANFDKESERHAIMQVVCEATQCPDTRVRVAALQNLVKIMSLYYQYMETAMGPALFARTIEAMKSDIDEVALQGIEFWSNVCDEEMDLAIEASEAAEQGRPPEHTSKFYAKGALQYLVPILTQTLTKQDENDDDDDWNPCKAAGVCLMLLATCCED
notes: also called KPNB1-mNIS; not shown: GFP/EGFP tag (pEGFP-C1, Clontech)
Turning to B4, the binding result in the test with endogenous Nup62 [2] is reported as “no binding”.
